The supplement of paper PMC10065799, “High-throughput profiling of sequence recognition by tyrosine kinases and SH2 domains using bacterial peptide display” (eLife, 2023)

Key:
[1] = target: EPHB1 (UniProt P54762); assay: phosphorylation enrichment, bacterial display (enrichment ratio); higher = better substrate or ligand; peptides without Tyr show the background
[2] = tested on: Fer (mouse); assay: as above
[3] = tested on: AncSZ; assay: as above
[4] = target: Fes (UniProt P07332); assay: as above
[5] = target: MERTK (UniProt Q12866); assay: as above
[6] = target: FGFR3 (UniProt P22607); assay: as above
[7] = target: Fyn (UniProt P06241); assay: as above
[8] = tested on: c-Abl (mouse); assay: as above
[9] = target: Hck (UniProt P08631); assay: as above
[10] = target: Jak2 (UniProt O60674); assay: as above
[11] = target: EPHB2 (UniProt P29323); assay: as above
[12] = target: FGFR1 (UniProt P11362); assay: as above
[13] = tested on: c-Src; assay: as above
[14] = target: Grb2 SH2 (UniProt P62993); assay: SH2 binding enrichment of the phosphorylated peptide, bacterial display (enrichment ratio); higher = better substrate or ligand; peptides without Tyr show the background
[15] = target: c-Src SH2; assay: as above
[16] = target: SHP2-C SH2; assay: as above
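For SH2 binding enrichment of the phosphorylated peptide, bacterial display in this document: peptide library displayed on the E. coli surface as eCPX fusions, selected cells deep-sequenced, score is each peptide's frequency after selection divided by its frequency in the input.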
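For phosphorylation enrichment, bacterial display in this document: 11-residue human phosphosite peptides and single-mutation variants displayed on the E. coli surface, counted by deep sequencing, each peptide's frequency after selection divided by its frequency in the unselected input library; frequency after pTyr selection over input frequency; kinase dosed for 20-30% of maximal phosphorylation in three min.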

Chain of Hck (P08631 whole entry, looked up): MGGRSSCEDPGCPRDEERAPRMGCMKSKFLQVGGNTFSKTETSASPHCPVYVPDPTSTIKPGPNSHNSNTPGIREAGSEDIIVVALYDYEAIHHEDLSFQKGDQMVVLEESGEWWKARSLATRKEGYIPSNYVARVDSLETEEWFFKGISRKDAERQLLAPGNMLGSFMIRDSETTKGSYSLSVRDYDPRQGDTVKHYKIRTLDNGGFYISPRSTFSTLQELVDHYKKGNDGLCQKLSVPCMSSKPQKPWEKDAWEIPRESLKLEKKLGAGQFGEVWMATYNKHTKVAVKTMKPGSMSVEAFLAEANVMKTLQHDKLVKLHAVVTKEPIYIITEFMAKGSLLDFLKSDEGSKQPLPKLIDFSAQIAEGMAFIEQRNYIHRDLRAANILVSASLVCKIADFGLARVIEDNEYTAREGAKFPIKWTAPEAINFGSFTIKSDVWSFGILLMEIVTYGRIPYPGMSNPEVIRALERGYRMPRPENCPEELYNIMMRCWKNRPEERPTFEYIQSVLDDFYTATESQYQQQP
Chain of FGFR1 (P11362 whole entry, looked up): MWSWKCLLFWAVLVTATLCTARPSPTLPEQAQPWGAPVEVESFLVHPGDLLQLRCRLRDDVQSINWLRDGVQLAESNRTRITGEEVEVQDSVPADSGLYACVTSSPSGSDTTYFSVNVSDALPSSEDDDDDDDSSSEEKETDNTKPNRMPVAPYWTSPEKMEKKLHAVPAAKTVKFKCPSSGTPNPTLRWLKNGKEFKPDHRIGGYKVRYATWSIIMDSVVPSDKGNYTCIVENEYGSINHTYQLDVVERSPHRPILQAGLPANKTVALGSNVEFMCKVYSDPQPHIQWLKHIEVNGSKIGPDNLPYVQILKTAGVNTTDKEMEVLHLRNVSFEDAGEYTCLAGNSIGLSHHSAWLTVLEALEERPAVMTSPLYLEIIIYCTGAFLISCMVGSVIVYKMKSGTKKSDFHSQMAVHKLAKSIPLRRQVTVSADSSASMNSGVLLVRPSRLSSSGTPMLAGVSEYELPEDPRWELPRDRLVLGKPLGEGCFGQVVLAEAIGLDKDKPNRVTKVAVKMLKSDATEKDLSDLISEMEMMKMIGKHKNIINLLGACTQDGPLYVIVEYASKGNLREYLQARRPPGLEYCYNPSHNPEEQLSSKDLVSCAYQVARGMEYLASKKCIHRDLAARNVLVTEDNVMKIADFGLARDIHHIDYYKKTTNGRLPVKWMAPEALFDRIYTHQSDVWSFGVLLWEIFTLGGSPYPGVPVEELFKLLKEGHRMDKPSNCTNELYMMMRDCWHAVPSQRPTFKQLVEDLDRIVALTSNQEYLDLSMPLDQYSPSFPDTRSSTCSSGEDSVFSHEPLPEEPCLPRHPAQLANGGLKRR
Chain of EPHB2 (P29323 whole entry, looked up): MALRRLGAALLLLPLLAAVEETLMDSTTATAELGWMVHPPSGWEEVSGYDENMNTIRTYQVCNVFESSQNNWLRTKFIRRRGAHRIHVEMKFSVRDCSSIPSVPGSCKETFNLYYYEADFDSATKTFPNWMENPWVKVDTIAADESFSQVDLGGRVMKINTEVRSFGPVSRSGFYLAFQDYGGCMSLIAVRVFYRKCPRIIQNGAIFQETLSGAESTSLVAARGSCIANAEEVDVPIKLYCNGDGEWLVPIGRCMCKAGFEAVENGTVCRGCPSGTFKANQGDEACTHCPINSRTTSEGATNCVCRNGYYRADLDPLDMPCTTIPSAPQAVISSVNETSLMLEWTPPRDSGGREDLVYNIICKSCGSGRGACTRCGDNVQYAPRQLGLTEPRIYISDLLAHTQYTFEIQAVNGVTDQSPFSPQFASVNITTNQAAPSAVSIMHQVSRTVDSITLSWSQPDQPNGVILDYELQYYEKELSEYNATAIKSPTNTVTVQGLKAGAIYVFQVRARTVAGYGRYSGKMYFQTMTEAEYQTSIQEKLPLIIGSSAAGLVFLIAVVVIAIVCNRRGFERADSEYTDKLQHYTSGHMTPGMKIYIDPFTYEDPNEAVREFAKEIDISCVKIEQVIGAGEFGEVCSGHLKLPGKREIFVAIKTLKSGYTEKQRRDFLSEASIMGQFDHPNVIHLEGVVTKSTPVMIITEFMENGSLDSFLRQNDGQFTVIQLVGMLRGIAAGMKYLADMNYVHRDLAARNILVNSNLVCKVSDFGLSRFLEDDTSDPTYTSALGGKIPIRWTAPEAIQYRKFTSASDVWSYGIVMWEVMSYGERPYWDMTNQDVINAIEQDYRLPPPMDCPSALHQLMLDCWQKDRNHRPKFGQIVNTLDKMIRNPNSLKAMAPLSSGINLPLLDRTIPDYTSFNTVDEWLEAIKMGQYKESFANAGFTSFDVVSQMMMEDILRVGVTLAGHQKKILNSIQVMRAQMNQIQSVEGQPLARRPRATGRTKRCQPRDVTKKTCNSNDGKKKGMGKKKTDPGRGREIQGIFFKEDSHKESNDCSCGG
Chain of Fyn (P06241 whole entry, looked up): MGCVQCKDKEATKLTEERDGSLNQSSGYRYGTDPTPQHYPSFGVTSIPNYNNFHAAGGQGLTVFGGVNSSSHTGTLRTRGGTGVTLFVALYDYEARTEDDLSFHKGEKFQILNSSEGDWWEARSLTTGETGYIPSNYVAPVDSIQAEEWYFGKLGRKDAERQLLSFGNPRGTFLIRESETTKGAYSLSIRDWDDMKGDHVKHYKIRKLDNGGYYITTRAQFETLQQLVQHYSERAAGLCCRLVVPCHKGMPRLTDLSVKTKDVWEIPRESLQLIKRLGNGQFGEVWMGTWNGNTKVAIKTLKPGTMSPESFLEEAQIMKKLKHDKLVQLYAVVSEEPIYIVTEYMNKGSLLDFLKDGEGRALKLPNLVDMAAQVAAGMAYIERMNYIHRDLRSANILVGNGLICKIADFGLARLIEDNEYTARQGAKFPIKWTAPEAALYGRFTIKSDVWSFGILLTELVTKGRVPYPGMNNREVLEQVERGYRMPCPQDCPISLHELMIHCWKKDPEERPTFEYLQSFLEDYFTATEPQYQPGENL
Chain of FGFR3 (P22607 whole entry, looked up): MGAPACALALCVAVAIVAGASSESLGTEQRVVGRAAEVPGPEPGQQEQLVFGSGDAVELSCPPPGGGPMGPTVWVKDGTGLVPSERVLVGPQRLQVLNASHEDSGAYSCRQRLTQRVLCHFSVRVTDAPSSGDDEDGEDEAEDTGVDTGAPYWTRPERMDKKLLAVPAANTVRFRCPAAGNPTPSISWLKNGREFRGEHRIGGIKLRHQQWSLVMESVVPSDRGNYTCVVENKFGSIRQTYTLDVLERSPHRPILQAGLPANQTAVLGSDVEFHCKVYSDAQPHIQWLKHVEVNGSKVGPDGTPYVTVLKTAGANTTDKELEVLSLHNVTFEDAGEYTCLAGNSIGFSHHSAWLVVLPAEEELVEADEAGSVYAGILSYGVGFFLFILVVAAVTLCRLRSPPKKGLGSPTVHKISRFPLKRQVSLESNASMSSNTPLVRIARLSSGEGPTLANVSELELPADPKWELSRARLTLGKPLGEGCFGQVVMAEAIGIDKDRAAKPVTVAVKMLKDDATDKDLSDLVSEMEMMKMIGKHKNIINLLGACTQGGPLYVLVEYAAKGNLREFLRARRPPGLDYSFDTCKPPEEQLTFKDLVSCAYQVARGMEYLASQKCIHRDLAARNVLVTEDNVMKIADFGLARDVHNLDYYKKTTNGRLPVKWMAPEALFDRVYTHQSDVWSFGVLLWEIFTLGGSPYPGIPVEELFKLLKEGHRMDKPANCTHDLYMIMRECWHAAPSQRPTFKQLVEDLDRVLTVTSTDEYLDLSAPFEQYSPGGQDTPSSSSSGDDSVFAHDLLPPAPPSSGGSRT
Chain of Jak2 (O60674 whole entry, looked up): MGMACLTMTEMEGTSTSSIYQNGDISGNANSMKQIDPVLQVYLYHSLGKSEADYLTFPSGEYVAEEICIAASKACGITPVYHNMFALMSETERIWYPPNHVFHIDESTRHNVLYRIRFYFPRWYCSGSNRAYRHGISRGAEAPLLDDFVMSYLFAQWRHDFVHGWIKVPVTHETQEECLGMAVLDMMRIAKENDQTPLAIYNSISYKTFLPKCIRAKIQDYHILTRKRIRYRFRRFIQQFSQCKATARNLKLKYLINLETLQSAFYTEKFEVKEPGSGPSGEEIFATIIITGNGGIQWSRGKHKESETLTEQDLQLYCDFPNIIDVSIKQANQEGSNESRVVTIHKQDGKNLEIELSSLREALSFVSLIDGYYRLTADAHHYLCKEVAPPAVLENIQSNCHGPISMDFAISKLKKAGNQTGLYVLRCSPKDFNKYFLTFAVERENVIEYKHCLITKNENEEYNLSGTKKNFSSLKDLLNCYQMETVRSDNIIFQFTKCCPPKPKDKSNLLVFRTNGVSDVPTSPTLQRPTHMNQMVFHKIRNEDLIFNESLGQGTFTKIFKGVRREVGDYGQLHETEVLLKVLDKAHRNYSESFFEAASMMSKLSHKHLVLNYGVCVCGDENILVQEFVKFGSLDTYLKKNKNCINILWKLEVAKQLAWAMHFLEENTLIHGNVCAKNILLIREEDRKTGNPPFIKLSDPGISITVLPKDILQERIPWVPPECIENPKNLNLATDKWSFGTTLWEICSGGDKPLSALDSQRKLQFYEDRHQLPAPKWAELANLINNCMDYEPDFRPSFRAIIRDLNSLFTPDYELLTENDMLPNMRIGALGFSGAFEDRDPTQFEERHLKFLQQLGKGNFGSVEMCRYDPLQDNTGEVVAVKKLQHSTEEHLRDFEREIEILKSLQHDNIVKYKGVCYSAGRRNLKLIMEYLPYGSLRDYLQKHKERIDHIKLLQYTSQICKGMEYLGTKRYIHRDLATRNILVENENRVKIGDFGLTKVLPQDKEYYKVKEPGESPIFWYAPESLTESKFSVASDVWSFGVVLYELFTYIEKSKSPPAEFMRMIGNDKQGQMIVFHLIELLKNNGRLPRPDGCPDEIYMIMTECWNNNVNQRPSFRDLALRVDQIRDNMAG

Sequence | SH2 binding enrichment [14] | SH2 binding enrichment [15] | SH2 binding enrichment [16] | phosphorylation enrichment [1] | phosphorylation enrichment [2] | phosphorylation enrichment [3] | phosphorylation enrichment [4] | phosphorylation enrichment [5] | phosphorylation enrichment [6] | phosphorylation enrichment [7] | phosphorylation enrichment [8] | phosphorylation enrichment [9] | phosphorylation enrichment [10] | phosphorylation enrichment [11] | phosphorylation enrichment [12] | phosphorylation enrichment [13]
KGNMYYENSYA [EGFR_Y113_R108K] | 10.2 | 4.96 | 1.05 | 0.629 | 1.23 | 0.667 | 0.77 | 1.17 | 0.72 | 0.515 | 0.474 | 0.561 | 0.481 | 0.593 | 0.878 | 0.473
ENGPYYASYPP [GDAP2_Y488_T489A] | 0.729 | 0.632 | 0.773 | 1.64 | 1.29 | 1.09 | 0.735 | 6.92 | 2.01 | 6.13 | 3.72 | 3.82 | 0.662 | 4.76 | 2.69 | 5.28
QWPGPYDRPGA [HNRNPH2_Y210_R206W] | 0.885 | 1.33 | 0.789 | 0.416 | 0.858 | 0.646 | 0.928 | 0.541 | 0.798 | 0.636 | 0.681 | 0.73 | 0.719 | 0.513 | 0.602 | 0.54
LDAFIYNAAVL [GRIN2A_Y730_D731N] | 0.927 | 0.5 | 0.761 | 1.3 | 1.95 | 1.72 | 2.08 | 0.704 | 1.62 | 4.57 | 0.972 | 4.05 | 0.874 | 1.57 | 2.36 | 2.32
LEIETYRRLRD [KRT12_Y429_L433R] | 0.754 | 0.471 | 0.725 | 0.533 | 0.351 | 0.859 | 1.25 | 0.834 | 0.809 | 0.658 | 0.659 | 0.674 | 1.23 | 0.559 | 0.645 | 0.672
ANVKWYRSGRE | 0.739 | 0.368 | 0.46 | 0.401 | 0.402 | 0.875 | 0.841 | 0.474 | 0.886 | 0.43 | 0.587 | 0.412 | 0.585 | 0.425 | 0.46 | 0.512
LNPDGYEKAYE [CPXM2_Y427] | 0.93 | 4.86 | 0.729 | 0.696 | 0.365 | 1.12 | 1.53 | 0.364 | 0.789 | 0.797 | 0.773 | 0.489 | 2.41 | 0.816 | 0.633 | 0.478
RVGNMYVRGLS [ABCG8_Y209] | 0.994 | 0.564 | 0.732 | 0.457 | 0.468 | 0.672 | 0.839 | 0.395 | 0.682 | 0.574 | 0.494 | 0.675 | 0.709 | 0.471 | 0.58 | 0.331
GGFNNYGFGSD [HNRNPH3_Y159_N163S_YF] | 0.753 | 0.47 | 0.744 | 0.7 | 0.39 | 0.656 | 0.762 | 0.474 | 0.533 | 0.458 | 0.575 | 0.454 | 0.68 | 0.812 | 0.48 | 0.426
FQKNSYSEELR [LMNA_Y211_I210S] | 0.847 | 0.413 | 0.643 | 0.363 | 0.365 | 0.626 | 0.686 | 0.425 | 0.499 | 0.456 | 0.544 | 0.319 | 0.63 | 0.342 | 0.401 | 0.452
PGLSSYGVPGS [FLNB_Y1530_A1534G] | 0.934 | 0.534 | 0.611 | 0.494 | 0.508 | 0.774 | 0.786 | 0.622 | 0.643 | 0.598 | 0.715 | 0.543 | 0.355 | 0.578 | 0.623 | 0.454

Now from value to sequence, other results behind:

SH2 binding enrichment [14] | SH2 binding enrichment [15] | SH2 binding enrichment [16] | Sequence | phosphorylation enrichment [1] | phosphorylation enrichment [2] | phosphorylation enrichment [3] | phosphorylation enrichment [4] | phosphorylation enrichment [5] | phosphorylation enrichment [6] | phosphorylation enrichment [7] | phosphorylation enrichment [8] | phosphorylation enrichment [9] | phosphorylation enrichment [10] | phosphorylation enrichment [11] | phosphorylation enrichment [12] | phosphorylation enrichment [13]
0.469 | 0.376 | 0.573 | QKINNYLTVPA [SLC9A1_Y683] | 1.34 | 0.497 | 0.618 | 0.727 | 0.65 | 0.445 | 0.508 | 0.833 | 0.689 | 0.615 | 0.706 | 0.758 | 0.524
1.29 | 0.384 | 0.659 | QMIETYFDFRL [NSMF_Y506] | 3.62 | 0.622 | 2.67 | 2.56 | 2.65 | 5.67 | 6.04 | 1.62 | 5.25 | 6.57 | 1.36 | 7.65 | 8.42
0.771 | 0.434 | 1.09 | GHEEFYSTHPH [LRRK2_Y1402_R1398H] | 0.617 | 1.41 | 0.664 | 0.626 | 1.77 | 0.549 | 0.638 | 0.504 | 1.15 | 0.59 | 0.7 | 0.76 | 1.2
0.84 | 0.557 | 1.54 | LSALDYKIFFF [WDPCP_Y210_YF] | 0.588 | 0.672 | 1.5 | 1.05 | 0.332 | 0.833 | 0.418 | 0.725 | 0.585 | 0.991 | 0.71 | 0.753 | 0.717
0.585 | 0.317 | 0.593 | PTEAQYRFIFM [PTPN11_Y511_Q506P_YF] | 0.876 | 1.06 | 1.6 | 1.81 | 0.702 | 1.21 | 0.939 | 1.32 | 1.07 | 1.44 | 0.767 | 1.9 | 0.477
1.41 | 1.07 | 1.67 | SPFMLYQFLKQ [RPAP3_Y567_D564Y_YF] | 4.55 | 3.37 | 1.15 | 1.34 | 4.11 | 0.99 | 0.621 | 0.938 | 4.2 | 1.07 | 2.73 | 1.14 | 0.867
